pKd: −log10 of the molar value.

Usually pKd stands for −log10 of the Kd, conventionally taken in molar units.

This experiment deals with EEEV PE6 virus-like particle (Eastern equine encephalitis virus, strain PE6). As to the kind of experiment: BLI. (In general: Biolayer interferometry detects binding as a change in optical thickness at a sensor tip.)

ApoER2_(iso2) LA1-3-Fc (Fc fusion) had a pKd of 6.15.

Substance S. vulgaris VLDLR LA1-8-Fc (Fc fusion) gave a pKd of 7.96.

In the case of “VLDLR LA1-2-Fc (from UniProt P98155-1 28-113) (Fc fusion)”, the negative logarithm of the Kd (pKd) was 6.30.

For the substance “VLDLR LA1-3-Fc (from UniProt P98155-1 28-152) (Fc fusion)”, the pKd was 6.44.

Consider “VLDLR LA2-3-Fc (from UniProt P98155-1 70-151) (Fc fusion)”, for which the pKd was 5.74.

In the case of “VLDLR LA2-4-Fc (from UniProt P98155-1 70-190) (Fc fusion)”, the pKd was 5.96.

Consider “VLDLR LA2-5-Fc (from UniProt P98155-1 70-231) (Fc fusion)”, for which the pKd was 7.37.

With “VLDLR LA3-4-Fc (from UniProt P98155-1 111-190) (Fc fusion)”, the pKd was 5.41.

“VLDLR LA3-5-Fc (from UniProt P98155-1 111-236) (Fc fusion)” had a negative logarithm of the Kd (pKd) of 7.49.

As for “VLDLR LA3-6-Fc (from UniProt P98155-1 111-276) (Fc fusion)”, the negative-log Kd (pKd) is 7.15.

Take “VLDLR LA4-5-Fc (from UniProt P98155-1 152-236) (Fc fusion)”: the pKd is 4.92.

With “VLDLR LA4-6-Fc (from UniProt P98155-1 152-275) (Fc fusion)”, the negative logarithm of the Kd (pKd) is 5.64.

“VLDLR LA5-6-Fc (from UniProt P98155-1 191-275) (Fc fusion)” showed a pKd of 5.38.

The record behind these values is article PMC11316819.
